# Literature values, collected in paper PMC5427221.
# Target: C3b C3b (Homo sapiens) (UniProt P01024)
# Chain of UniProt P01024 (P01024 566-670): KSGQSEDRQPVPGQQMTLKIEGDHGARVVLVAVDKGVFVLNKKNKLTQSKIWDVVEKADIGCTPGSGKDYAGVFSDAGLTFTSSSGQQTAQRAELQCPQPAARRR
substance,measurement,value
Factor H FH[1-4] (from UniProt P08603),Kd,10 µM
